In FireProtDB (doi:10.1021/bi027116n):
Several values for one entry are separate records, joined by “and”; a condition that tells them apart may be missing. Identical values can stand only once.

Conditions: Spinacia oleracea, reversible: no; for denaturant midpoint (higher = more stable): 20 °C, GdnHCl; for Tm: Thermal

Ferredoxin-1, chloroplastic wild type, P00221, sequence (P00221 whole entry): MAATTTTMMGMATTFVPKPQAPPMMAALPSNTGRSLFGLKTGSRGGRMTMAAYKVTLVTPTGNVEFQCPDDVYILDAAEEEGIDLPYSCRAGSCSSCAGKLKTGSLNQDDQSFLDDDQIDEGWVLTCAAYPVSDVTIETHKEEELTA

Substance: Ferredoxin-1, chloroplastic wild type, P00221
- denaturant midpoint (higher = more stable) (pH 7, Absorbance, phosphate): 2.1 M and 1.7 M and 1.5 M
- denaturant midpoint (higher = more stable) (pH 7, CD, phosphate): 2.1 M and 1.6 M
- denaturant midpoint (higher = more stable) (pH 7, Emission, phosphate): 1.6 M
- Tm (pH 7, Absorbance, Phosphate): 70 °C
- denaturant midpoint (higher = more stable) (pH 10, Absorbance, Glycine-OH): 3 M and 1.5 M
- denaturant midpoint (higher = more stable) (pH 10, CD, Glycine-OH): 1.6 M
- denaturant midpoint (higher = more stable) (pH 10, Emission, Glycine-OH): 1.6 M
- Tm (pH 10, Absorbance, Glycine-OH): 53 °C
